One data set addresses T1, FadD1 (Pseudomonas aeruginosa, UniProt Q9HYU4).
T1 construct: expressed in E. coli BL21, Ni-NTA, His-tag removed by TEV protease; labelled for MST
Description: microscale thermophoresis. It is filed as binding. Background: In MST a laser heats a spot of the sample, and binding alters the fluorescence response.

Data set [1] addresses T2, FadD1 (Pseudomonas aeruginosa PAO1) (UniProt Q9HYU4).
T2 sequence: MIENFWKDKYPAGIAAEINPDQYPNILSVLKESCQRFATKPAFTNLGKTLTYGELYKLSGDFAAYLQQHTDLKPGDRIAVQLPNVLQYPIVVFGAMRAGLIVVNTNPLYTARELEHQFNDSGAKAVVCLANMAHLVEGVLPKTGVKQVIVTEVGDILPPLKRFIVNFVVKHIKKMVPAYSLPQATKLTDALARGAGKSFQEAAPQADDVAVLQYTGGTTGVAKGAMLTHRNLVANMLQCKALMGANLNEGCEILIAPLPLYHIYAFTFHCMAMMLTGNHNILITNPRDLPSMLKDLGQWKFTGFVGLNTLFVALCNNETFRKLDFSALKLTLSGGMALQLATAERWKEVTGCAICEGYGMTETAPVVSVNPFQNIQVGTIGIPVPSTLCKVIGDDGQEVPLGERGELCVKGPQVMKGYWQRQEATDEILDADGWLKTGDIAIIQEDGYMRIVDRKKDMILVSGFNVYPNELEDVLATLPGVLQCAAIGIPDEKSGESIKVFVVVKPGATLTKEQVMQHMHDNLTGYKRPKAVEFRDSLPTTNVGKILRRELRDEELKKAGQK
Description: EMSA. On the technique in general: In EMSA bound probe runs differently from free probe, usually more slowly.

As usually defined, the Kd is the free concentration of one partner at which half of the binding sites on the other are occupied at equilibrium, for simple one-to-one binding. Higher therefore signals lower affinity. For the compound `CCCCCCCCC/C=C\C(=O)O` [BDSF], binding at FadD1 was put at a Kd of 1650 ± 210 nM. Same read-out and setting: under `CCCCCCC/C=C\C(=O)O` [cis-DA] stands 1060 ± 140 nM. Regarding “ATCTCATGCAGATGCCGGAGTTCTCCCTGAACTTCGCCTTGTTGCATACATGGCAAGCGCGCCATGGCGGAGCGCGACGGCTGAATATCTAGCACGAAAGTGAAAATAGAAAAGAACGAGATTTCATAAGGGCGGGCGCCGTTTTTAACAGGTTGTTCATGCGTCGCCGCTAGTTTGTTGTCTTTCACAGAACTGTTCGATGAACGGACTTGTTGCATTAGAACAATAAGTCCCGATGGAACTTCGGGGGACCGTGTGAAGCGTTCGCTGTTCAATTGTGCGCAC (double strand) [PA0692 promoter]”, the binding entry in data set [1] is “binds”. On the same count and under the same terms, the value for “GTCGGCGTTTCATGGAATTGTCACAACCGCACAGTATCGCTTGCGGTAAAGCGGCCCAGGTGGTCGAACGTTGTCATAGGGAGGGGGATGCTCGATGGCTGAAGGCTGCGTCCTGAACGGTGCTGGCATAACAGATAGGGTTGCCATGATTTTGCCGTATCGGCAAGGCTGCGCGCTTGACAGCGTCATACCCCGGGCCAATTCTGCTGTGATGCATTTTATCGATCAGGGCTTACTGCAATGAGGAATGACGGAGGCTTTTTGCTGTGG (double strand) [rhlR promoter]” was “no binding”; that for “GTGCGCACAATTGAACAGCGAACGCTTCACACGGTCCCCCGAAGTTCCATCGGGACTTATTGTTCTAATGCAACAAGTCCGTTCATCGAACAGTTCTGTGAAAGACAACAAACTAGCGGCGACGCATGAACAACCTGTTAAAAACGGCGCTATGAAATCTCGTTCTTTTCTATTTTCACTTTCGTGCTAGATATTCAGCCGTCGCGCTCCGCCATGGCGCGCTTGCCATGTATGCAACAAGGCGAAGTTCAGGGAGAACTCCGGCATCTGCATGAGAT (double strand) [PA0692 promoter, AGGGCGG deleted]” was “no binding”.

These data come from paper PMC12754631, “Cis‐2‐decenoic acid modulates Pseudomonas aeruginosa virulence through a noncanonical transcriptional regulator” (mLife, 2025).
